How the values were obtained:
[1] = test system: SMT3-GFP (wild-type SUMO-GFP fusion) [SUMO: Q12306]
[2] = test system: SUMO*-GFP (engineered SUMO 2F4, Smt3 R64T R71E, fused to GFP)
SUMO*-GFP (engineered SUMO 2F4, Smt3 R64T R71E, fused to GFP), sequence (chain, as listed by the source R64T R71E): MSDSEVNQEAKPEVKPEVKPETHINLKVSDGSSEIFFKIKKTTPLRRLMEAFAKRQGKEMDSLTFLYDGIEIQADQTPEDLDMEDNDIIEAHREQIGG

SMT3-GFP (wild-type SUMO-GFP fusion) [SUMO: Q12306], sequence (Q12306 whole entry, looked up, the tested form may be a part): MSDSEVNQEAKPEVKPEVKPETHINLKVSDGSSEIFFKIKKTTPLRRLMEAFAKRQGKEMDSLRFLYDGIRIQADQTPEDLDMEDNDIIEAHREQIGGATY

SUMO protease 2 (SENP2)
in vitro cleavage (SDS-PAGE and anti-Smt3 Western blot) [1]: wild-type SUMO (Smt3) is cleaved by ULP1 and SENP2 (SUMO protease 1 and 2) in vitro | in vitro cleavage reaction [2]: Neither protease cleaved SUMO*

Source: patent US20120065106
